Experiments:
MS2 coat protein [1] = assay: apparent KD of MS2 coat protein; designed switch direction (-1 OFF switch, 1 ON switch): 1; higher = weaker reporter binding
In short: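 Designed RNA switches with common flanks were made on Illumina chips by stalled E. coli RNA polymerase. Titration with SNAP-549-labelled MS2 coat protein doubled from 0.7 or 1.5 nM up to 3 µM. Apparent KD is each design's median over clusters after curve-fitting normalised fluorescence.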

MS2 coat protein [2] = assay: apparent KD of MS2 coat protein; higher = weaker reporter binding; settings: Eterna round: R107
In short: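 On-chip transcription from Illumina sequencing clusters produced the designed RNA switches. These were titrated with SNAP-549-labelled MS2 coat protein (twofold steps, 0.7 or 1.5 nM to 3 µM) in 100 mM Tris-HCl pH 7.5, 80 mM KCl, 4 mM MgCl2, with or without constant ligand. The apparent KD given is the per-design median of normalised cluster binding-curve fits.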

[3] = Eterna round: R95, input ligand: FMN 200 uM
[4] = Eterna round: R95, input ligand: microRNA oligo, concentration not stated
[5] = Eterna round: R95, input ligand: none
[6] = input ligand: microRNA oligo, concentration not stated

GCGCAGCUGAGUGAGGAUAUCGGUGGUAAAACAUGAGGAUCACCCAUGUCCGAAGCUCGGACUUCCGAGAAGGCACCCGGCUGCA [Inisusbeor] (puzzle: Same State 2)
apparent KD of MS2 coat protein (MS2 coat protein [1]; [3]): 11.9 nM
apparent KD of MS2 coat protein (MS2 coat protein [1]; [4]): 47.4 nM
apparent KD of MS2 coat protein (MS2 coat protein [1]; [5]): 73.5 nM

AACUAUCUAUCUCAGGAUAUCAUGUCAAAGACAUGAGGAUCACCCAUGUACCAGGAAACUGGUUAUGAGAAGGGAGAUAGAUAGU [Mat - Same State 2 - Mod - D41] (puzzle: Same State 2)
apparent KD of MS2 coat protein (MS2 coat protein [1]; [3]): 127 nM
apparent KD of MS2 coat protein (MS2 coat protein [1]; [4]): 263 nM
apparent KD of MS2 coat protein (MS2 coat protein [1]; [5]): 602 nM

CAAACCGACACAGGAUAUGGAGCCGACCGGCACAUGAGGAUCACCCAUGUGCUACAGGUAUGUAGCUAGAAGGGUGAAGGUAUC [Eternabot solution 29] (Eterna round: R96, puzzle: Same State NG 2)
apparent KD of MS2 coat protein (MS2 coat protein [1]; input ligand: FMN 200 uM): 48.5 nM
apparent KD of MS2 coat protein (MS2 coat protein [1]; [6]): 56.9 nM
apparent KD of MS2 coat protein (MS2 coat protein [1]; input ligand: none): 118 nM

GUGCUCGUGUAAGGAUAUGCUUCCGUUUCGGCUGCAGAAGGUACUAUUAUACAUGAGGAUCACCCAUGUCUCUUUUGUUUGGUG [salish99_SSNG1_r04_909] (Eterna round: R96, puzzle: Same State NG 1)
apparent KD of MS2 coat protein (MS2 coat protein [1]; input ligand: FMN 200 uM): 89.1 nM
apparent KD of MS2 coat protein (MS2 coat protein [1]; [6]): 55.5 nM
apparent KD of MS2 coat protein (MS2 coat protein [1]; input ligand: none): 87.9 nM

AGAGCCGGCACUGAGGAUAUUCAUAUUAAAACAUGAGGAUCACCCAUGUAGGCCAGAAGGCCUUGGGAGAAGGCAGGUCGGCUCU [Mat - Same State 2 - Mod of UCT - D61] (puzzle: Same State 2)
apparent KD of MS2 coat protein (MS2 coat protein [1]; [3]): 22.3 nM
apparent KD of MS2 coat protein (MS2 coat protein [1]; [4]): 211 nM
apparent KD of MS2 coat protein (MS2 coat protein [1]; [5]): 507 nM

ACAUGAGAGGGAGGAUAUUUUGUACCUACAUGUGACAUGAGGAUCACCCAUGUGGUAAGUAUGAGAAAGAAGGCCCAGAUAUGU [Equivalence 18 - Jieux - Same State NG 2] (Eterna round: R96, puzzle: Same State NG 2)
apparent KD of MS2 coat protein (MS2 coat protein [1]; input ligand: FMN 200 uM): 17.4 nM
apparent KD of MS2 coat protein (MS2 coat protein [1]; [6]): 18.9 nM
apparent KD of MS2 coat protein (MS2 coat protein [1]; input ligand: none): 27.4 nM

GUGCGGGUGCCACAGGAUAUACGUGGAUCGACAUGAGGAUCACCCAUGUAUAUCCUAAUAAUUGCGUAGAAGGGUGGUCAGCCGU [Enbebiqu] (Eterna round: R96, puzzle: Same State 2)
apparent KD of MS2 coat protein (MS2 coat protein [1]; input ligand: FMN 200 uM): 144 nM
apparent KD of MS2 coat protein (MS2 coat protein [1]; [6]): 196 nM

GAGUAGUUGAAAGGAUAUGGAUUGUUAUAGAAUCCAGAAGGUUCUAACAUGAGGAUCACCCAUGUAGGACUAUUCCUGUGUAUC [Parity 79 - Jieux - Same State NG 1] (Eterna round: R96, puzzle: Same State NG 1)
apparent KD of MS2 coat protein (MS2 coat protein [1]; input ligand: FMN 200 uM): 10.2 nM
apparent KD of MS2 coat protein (MS2 coat protein [1]; [6]): 9.3 nM
apparent KD of MS2 coat protein (MS2 coat protein [1]; input ligand: none): 12.2 nM

GGUAGGUUACUACCAAACAUGAGGAUCACCCAUGUAAAUGGGAAGGAUAUGGUACCGUUUCGGUACCAGAAGGUCCAAAAUAUU [JL Fiskers NG3ss - 2 final mod] (Eterna round: R96, puzzle: Same State NG 3)
apparent KD of MS2 coat protein (MS2 coat protein [1]; input ligand: FMN 200 uM): 418 nM
apparent KD of MS2 coat protein (MS2 coat protein [1]; [6]): 356 nM
apparent KD of MS2 coat protein (MS2 coat protein [1]; input ligand: none): 1520 nM

CGUCCGGCCUGAGCUGGACGGAAGCAUGUACAUGAGGAUCACCCAUGUUCAUGUGCAGGCUUUUUGCUCGUCUUGUG [JL-shm-2.08 JL mod] (puzzle: Sensor for hsa-mir-208a)
apparent KD of MS2 coat protein (MS2 coat protein [1]; [3]): 105 nM
apparent KD of MS2 coat protein (MS2 coat protein [1]; [4]): 12.5 nM
apparent KD of MS2 coat protein (MS2 coat protein [1]; [5]): 127 nM

CGCAUCAUUGUUACAUGAGGAUCACCCAUGUUUUCGAGUGGAGAGGAUAUCGUAACAGUAUAAAUCGAGAAGGCUCUAUAGUAU [JR_SSNG3_Sub082] (Eterna round: R96, puzzle: Same State NG 3)
apparent KD of MS2 coat protein (MS2 coat protein [1]; input ligand: FMN 200 uM): 34.1 nM
apparent KD of MS2 coat protein (MS2 coat protein [1]; [6]): 77.1 nM
apparent KD of MS2 coat protein (MS2 coat protein [1]; input ligand: none): 81.6 nM

GGCGCGGUCUCGCAGGAUAUCCACAAUCCUACAUGAGGAUCACCCAUGUCGCUGCAGGAUAUUAGGGAGAAGGGUGAUGCCGCGG [Bereri] (puzzle: Same State 2)
apparent KD of MS2 coat protein (MS2 coat protein [1]; [3]): 20 nM
apparent KD of MS2 coat protein (MS2 coat protein [1]; [4]): 30.4 nM
apparent KD of MS2 coat protein (MS2 coat protein [1]; [5]): 41.6 nM

GGCCGGCCGAACGGAGGGCCACAUGAGGAUCACCCAUGUACAUAGGAUAUCAUGUCAACGAGGCAUGAGAAGGGUGAUUAAAGC [Orenriaran] (Eterna round: R96, puzzle: Same State NG 3)
apparent KD of MS2 coat protein (MS2 coat protein [1]; input ligand: FMN 200 uM): 65 nM
apparent KD of MS2 coat protein (MS2 coat protein [1]; [6]): 72.9 nM
apparent KD of MS2 coat protein (MS2 coat protein [1]; input ligand: none): 57.7 nM

GUUACAUGAGGAUCACCCAUGUAUGUGUGGGAGUAAGUGUCUUAGGAUAUCUGUUAUUUUAUUUAAGAGAAGGAAGAUUGUUGU [JMF's solution 39] (Eterna round: R96, puzzle: Same State NG 3)
apparent KD of MS2 coat protein (MS2 coat protein [1]; input ligand: FMN 200 uM): 133 nM
apparent KD of MS2 coat protein (MS2 coat protein [1]; [6]): 68.9 nM
apparent KD of MS2 coat protein (MS2 coat protein [1]; input ligand: none): 80.7 nM

ACGUGGAUAUCACAGGAUAUACUCACAACUACAUGAGGAUCACCCAUGUAGCGGUAUUCCGGUGCGUAGAAGGGUGAUGGACCAC [Same State 2 - Mod of Artece v.3] (puzzle: Same State 2)
apparent KD of MS2 coat protein (MS2 coat protein [1]; [3]): 12.1 nM
apparent KD of MS2 coat protein (MS2 coat protein [1]; [4]): 12 nM
apparent KD of MS2 coat protein (MS2 coat protein [1]; [5]): 11.4 nM

UGCUUCAUGUAAGGAUAUGCAGCCGUUUCGGCUGCAGAAGGUACUAUAAUACAUGAGGAUCACCCAUGUCUCUCGCAUUGCGAG [salish99_SSng1_r04_301] (Eterna round: R96, puzzle: Same State NG 1)
apparent KD of MS2 coat protein (MS2 coat protein [1]; [6]): 111 nM

AAAUAAAACACAGGAUAUGCAGCCAAUACGGCGGCAGAAGGGUGAGACAUGAGGAUCACCCAUGUACACGUCCCACAGACGUGC [Mabege] (Eterna round: R96, puzzle: Same State NG 1)
apparent KD of MS2 coat protein (MS2 coat protein [1]; input ligand: FMN 200 uM): 426 nM
apparent KD of MS2 coat protein (MS2 coat protein [1]; [6]): 89.9 nM
apparent KD of MS2 coat protein (MS2 coat protein [1]; input ligand: none): 119 nM

AUCCGGAAGCGAGGAUAUGCAGAGGAUCACCCUGCAGAAGGCGCAAAAGCGAGGAUAUGCAGAGGAUCACCCUGCAGAAGGCGC [pwkr ssNG DX.28] (Eterna round: R96, puzzle: Same State NG 1)
apparent KD of MS2 coat protein (MS2 coat protein [1]; input ligand: FMN 200 uM): 14 nM
apparent KD of MS2 coat protein (MS2 coat protein [1]; [6]): 12.6 nM
apparent KD of MS2 coat protein (MS2 coat protein [1]; input ligand: none): 42.1 nM

UUUCGGUGGCUGGAGGAUAUCCUGGUUGUUACAUGAGGAUCACCCAUGUGCCGCGCGGUGCGCUGGGAGAAGGCCGGCGGCCCUU (puzzle: Same State 2)
apparent KD of MS2 coat protein (MS2 coat protein [1]; [4]): 25.2 nM

GAGCCAGUCCGAGGAUAUUCAUAACAUGAGGAUCACCCAUGUAGGCUCAGAAAAGAAGAGCCUUGGGAGAAGGCGGACUGGCUC [Xeonanisa<<5] (Eterna round: R96, puzzle: Same State NG 2)
apparent KD of MS2 coat protein (MS2 coat protein [1]; input ligand: FMN 200 uM): 9.88 nM
apparent KD of MS2 coat protein (MS2 coat protein [1]; [6]): 30.2 nM
apparent KD of MS2 coat protein (MS2 coat protein [1]; input ligand: none): 43.8 nM

UACAAUCUAUCUGAGGAUAUCAUGAUAAUAACAUGAGGAUCACCCAUGUGCAGGAAAACUGCAUAUGAGAAGGCAGAUAGAUUGA [Mat - Same State 2 - Mod - D13] (puzzle: Same State 2)
apparent KD of MS2 coat protein (MS2 coat protein [1]; [3]): 89.9 nM
apparent KD of MS2 coat protein (MS2 coat protein [1]; [4]): 93.1 nM
apparent KD of MS2 coat protein (MS2 coat protein [1]; [5]): 417 nM

AUAAAACAUGAGGAUCACCCAUGUCAACAAAGUCGAGGAUAUGGGCAUAUAAAAUAAGAACCAGAAGGCGAAUAAU [salish99_ss1_r3_026] (puzzle: Same State 1)
apparent KD of MS2 coat protein (MS2 coat protein [1]; [3]): 32.2 nM
apparent KD of MS2 coat protein (MS2 coat protein [1]; [4]): 265 nM
apparent KD of MS2 coat protein (MS2 coat protein [1]; [5]): 230 nM

CCCAACAUGAGGAUCACCCAUGUUCCGGGUCGAGGACCGGUACGGCCGCCACUCGGUAUGAUGGGUGUGCAGCGUAUCUGCACCA [theeternabot_sameState_MS2_Trp_A_22]
apparent KD of MS2 coat protein (MS2 coat protein [2]; input ligand: arginine 13.2 mM): 30.9 nM
apparent KD of MS2 coat protein (MS2 coat protein [2]; input ligand: theophylline 20 uM): 61.1 nM
apparent KD of MS2 coat protein (MS2 coat protein [2]; input ligand: theophylline 2 mM): 68.4 nM
